Source: paper PMC6629373, “Cryo-EM structure of the rhodopsin-Gαi-βγ complex reveals binding of the rhodopsin C-terminal tail to the gβ subunit” (eLife, 2019)

Target: T1, human Gαi subunit (Gαi1) with N-terminal deca-histidine tag (human, UniProt P63096 1-354)
T1 construct: Gαi1 subunit, human; TEV protease-cleavable tag; source: E. coli BL21 (DE3), purified; not shown: His10, N-terminal, kept
Experiment: cryo-EM structure; rhodopsin-Gi-Fab16 complex; rhodopsin on 1D4 resin mixed with 10xHis-tagged Gi, light-activated, with apyrase, in LMNG; Ni-NTA; Fab16 added in molar excess (1:1.4); SEC in 20 mM HEPES pH 7.5, 150 mM NaCl; Titan Krios, K2; nominal resolution 4.38 Å
Details: both partners purified

binding result: binds
B1: bovine rhodopsin N2C/M257Y/D282C (stabilized, constitutively active mutant) (receptor, UniProt P02699 1-348, looked up)
chain: MCGTEGPNFYVPFSNKTGVVRSPFEAPQYYLAEPWQFSMLAAYMFLLIMLGFPINFLTLYVTVQHKKLRTPLNYILLNLAVADLFMVFGGFTTTLYTSLHGYFVFGPTGCNLEGFFATLGGEIALWSLVVLAIERYVVVCKPMSNFRFGENHAIMGVAFTWVMALACAAPPLVGWSRYIPEGMQCSCGIDYYTPHEETNNESFVIYMFVVHFIIPLIVIFFCYGQLVFTVKEAAAQQQESATTQKAEKEVTRMVIIYVIAFLICWLPYAGVAFYIFTHQGSCFGPIFMTIPAFFAKTSAVYNPVIYIMMNKQFRNCMVTTLCCGKNPLGDDEASTTVSKTETSQVAPA
modifications: palmitoylation of Cys residues at positions 322 and 323; reconstituted with 9-cis or 11-cis retinal and light-activated
notes: rhodopsin, bovine, mutant N2C/M257Y/D282C; Residues 324-335 of the C-tail were modelled in the map; also called the receptor
